{
  "source": "paper PMC10053325",
  "binders": {"B1": {"name": "Flag-SMAD3, P84022 1-425 (natural protein)", "chain": "MSSILPFTPPIVKRLLGWKKGEQNGQEEKWCEKAVKSLVKKLKKTGQLDELEKAITTQNVNTKCITIPRSLDGRLQVSHRKGLPHVIYCRLWRWPDLHSHHELRAMELCEFAFNMKKDEVCVNPYHYQRVETPVLPPVLVPRHTEIPAEFPPLDDYSHSIPENTNFPAGIEPQSNIPETPPPGYLSEDGETSDHQMNHSMDAGSPNLSPNPMSPAHNNLDLQPVTYCEPAFWCSISYYELNQRVGETFHASQPSMTVDGFTDPSNSERFCLGLLSNVNRNAAVELTRRHIGRGVRLYYIGGEVFAECLSDSAIFVQSPNCNQRYGWHPATVCKIPPGCNLKIFNNQEFAALLAQSVNQGFEAVYQLTRMCTIRMSFVKGWGAEYRRQTVTSTPCWIELHLNGPLQWLDKVLTQMGSPSIRCSSVS"}},
  "key": {"His-SMAD4^R361H, Q13485": {"target": "T1, His-SMAD4^R361H, Q13485", "T1 chain": "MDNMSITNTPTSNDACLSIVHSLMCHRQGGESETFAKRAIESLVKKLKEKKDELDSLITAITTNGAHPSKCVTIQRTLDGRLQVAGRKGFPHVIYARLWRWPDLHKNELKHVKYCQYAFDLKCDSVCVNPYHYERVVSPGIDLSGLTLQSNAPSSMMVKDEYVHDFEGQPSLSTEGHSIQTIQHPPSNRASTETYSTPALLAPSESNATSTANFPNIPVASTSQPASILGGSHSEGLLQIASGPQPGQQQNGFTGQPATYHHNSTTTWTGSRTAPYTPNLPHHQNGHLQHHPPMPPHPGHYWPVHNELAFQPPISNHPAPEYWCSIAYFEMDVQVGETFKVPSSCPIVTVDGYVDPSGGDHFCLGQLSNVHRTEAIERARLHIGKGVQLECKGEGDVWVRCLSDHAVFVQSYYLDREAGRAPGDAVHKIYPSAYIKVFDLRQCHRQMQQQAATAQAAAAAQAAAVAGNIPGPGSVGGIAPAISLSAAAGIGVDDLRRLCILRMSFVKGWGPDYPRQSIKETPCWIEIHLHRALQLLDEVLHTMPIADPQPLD", "test": "AlphaScreen or HTRF", "settings": "remark: other sources report otherwise"}, "His-SMAD4^WT, Q13485": {"target": "T2, His-SMAD4^WT, Q13485", "T2 chain": "T1 chain with H361R", "test": "AlphaScreen or HTRF", "settings": "remark: other sources report otherwise"}},
  "note": "Changes are numbered by the printed parent chain.",
  "data": [
    {"binder": "B1", "values": [
      {"measurement": "EC50 of Go-6983 in enhancing the PPI", "setting": "His-SMAD4^R361H, Q13485", "result": 15.2, "unit": "µM"},
      {"measurement": "EC50 of PKC-412 in enhancing the PPI", "setting": "His-SMAD4^R361H, Q13485", "result": "> 100", "unit": "µM"},
      {"measurement": "EC50 of Ro-31-8220 in enhancing the PPI", "setting": "His-SMAD4^R361H, Q13485", "result": 3.9, "unit": "µM"},
      {"measurement": "EC50 of UCN-1028c in enhancing the PPI", "setting": "His-SMAD4^R361H, Q13485", "result": "> 100", "unit": "µM"},
      {"measurement": "signal-to-background ratio (TR-FRET)", "setting": "His-SMAD4^R361H, Q13485", "result": 10, "unit": "fold"},
      {"measurement": "signal-to-background ratio (TR-FRET)", "setting": "His-SMAD4^WT, Q13485", "result": 30, "unit": "fold"}
    ]}
  ]
}
